Where a chain is given by its changes, count along the chain named. Blank lines part the entries; values can stand above or below the binder they belong to.
How the values were obtained:
[1] = biological target: T1, Human Siglec-9 N-terminal V-set Ig-like domain (human); experiment: flow cytometry, HEK293T cells expressing single Siglec-9 domains
T1 construct: expressed on HEK293T cells

[2] = biological target: T2, Human Siglec-9 mutant M6 (human, UniProt Q9Y336 18-463); experiment: flow cytometry, HEK293T transfectants
T2 construct: Expressed on HEK293T cells; also called Mutant 6

[3] = biological target: T3, Human Siglec-9 mutant M2 (human, UniProt Q9Y336 18-463); experiment: flow cytometry, HEK293T transfectants
T3 construct: Expressed on HEK293T cells; also called Mutant 2

[4] = biological target: T4, Siglec-7 Fc protein (human); experiment: ELISA, blocking: Siglec-7 Fc captured on protein A, mAb dilution series, then biotinylated polymer Sia2, streptavidin-peroxidase (top panel); partial inhibition
T4 construct: Produced in CHO cells; also called human Siglec-7 Fc
Experimental: (§1) Blocking of the interaction between Siglec-7 and -9 and sialylated ligands by anti Siglec-7/9 antibodies was tested on ELISA assays. Siglec proteins were Siglec-7 human Fc and Siglec-9 Human Fc recombinant proteins, and ligands were biotinylated polymers with sialylated trisaccharides (Neu5Aca2-3Galb1-4GcNAcb-PAA-biotin Glycotech #01-077 referred to as “Sia1” and 6′-Sialyllactose-PAA-biotin Glycotech #01-039 (referred to as “Sia2”). Briefly, Protein A was coated on ELISA plates over night at 4° C. After 3 washes and saturation, Siglec-7 Fc and Siglec-9 Fc were added at 0.8 μg/well at RT for 1H30. After 3 washes, mAbs were added at 20 ug/ml and a series of dilution of 1:5. After 3 washes, biotinylated sialylated polymers were added for 3 hours at room temperature. After 3 washes, Streptavidin-Peroxidase (Beckman) was added at 1:1000. […] The absorbance was read at 450 nm.

[5] = biological target: T5, Cynomolgus Siglec (cynomolgus); experiment: flow cytometry, CHO transfectants
T5 construct: Expressed on transfected CHO cells; also called Siglec-Cyno; cynoSiglec
Experimental: (§2) Binding of antibodies on human Siglec-7, human Siglec-9 and Cynomolgus Siglec-9 was tested by titration experiment by flow cytometry on CHO cells transfected with human Siglec-7 and human Siglec-9 and Cynomolgus Siglec-9. Cells were incubated 1h in Staining Buffer (SB) with primary antibodies at 20 ug/ml and a series of dilution of 1:5. They were washed three times with SB, then incubated 30 min with a goat F(ab′)² Anti-human IgG (Fc) PE (Beckman Coulter #1M05510), and washed twice with SB.

[6] = biological target: T6, Human Siglec-9 (human, UniProt Q9Y336 18-463); experiment: flow cytometry, CHO transfectants
T6 construct: On transfected CHO cells; also on YTS and KHYG-1 transfectants, primary NK cells and moDC; also called huSiglec-9; CD329
Experimental: as §2

[7] = biological target: T7, Human Siglec-7 (human, UniProt Q9Y286 19-467); experiment: flow cytometry, CHO transfectants
T7 construct: Expressed on transfected CHO cells; also called huSiglec-7; CD328
Experimental: as §2

[8] = biological target: T8, Siglec-9 Fc protein (human); experiment: ELISA, blocking: Siglec-9 Fc captured on protein A, mAb dilution series, then biotinylated polymer Sia1 (Neu5Aca2-3Galb1-4GlcNAcb-PAA-biotin), streptavidin-peroxidase (top panel)
T8 construct: Produced in CHO cells; also called human Siglec-9 Fc
Experimental: as §1

[9] = biological target: T6, Human Siglec-9; experiment: flow cytometry on fresh purified human NK cells, mean of 4 donors
Experimental: Binding of antibodies on fresh purified human NK cells was tested by titration experiment by flow cytometry. Cells were incubated 1h in Staining Buffer (SB) with primary antibodies at 10 ug/ml and a series of dilution of 1:10. They were washed three times with SB, then incubated 30 min with a Goat F(ab′)² Anti-Human IgG (Fc) PE (Jackson ImmunoResearch). Stainings were acquired on a BD FACS Canto II and analyzed using the FlowJo software. EC₅₀ values are shown in the table below in μg/ml (calculated using a 4-parameter logistic fit).

[10] = biological target: T7, Human Siglec-7; experiment: flow cytometry, CHO transfectants; remark: listed apart in the source
[11] = biological target: T9, Human Siglec-9 mutant M9 (human, UniProt Q9Y336 18-463); experiment: flow cytometry, HEK293T transfectants
T9 construct: Expressed on HEK293T cells; also called Mutant 9

[12] = biological target: T10, Human Siglec-9 mutant M11 (human, UniProt Q9Y336 18-463); experiment: flow cytometry, HEK293T transfectants
T10 construct: Expressed on HEK293T cells; also called Mutant 11

[13] = biological target: T11, Human Siglec-9 mutant M10 (human, UniProt Q9Y336 18-463); experiment: flow cytometry, HEK293T transfectants
T11 construct: Expressed on HEK293T cells; also called Mutant 10
T11 sequence (Q9Y336 other isoform, or with tags, fused parts or gaps mutant): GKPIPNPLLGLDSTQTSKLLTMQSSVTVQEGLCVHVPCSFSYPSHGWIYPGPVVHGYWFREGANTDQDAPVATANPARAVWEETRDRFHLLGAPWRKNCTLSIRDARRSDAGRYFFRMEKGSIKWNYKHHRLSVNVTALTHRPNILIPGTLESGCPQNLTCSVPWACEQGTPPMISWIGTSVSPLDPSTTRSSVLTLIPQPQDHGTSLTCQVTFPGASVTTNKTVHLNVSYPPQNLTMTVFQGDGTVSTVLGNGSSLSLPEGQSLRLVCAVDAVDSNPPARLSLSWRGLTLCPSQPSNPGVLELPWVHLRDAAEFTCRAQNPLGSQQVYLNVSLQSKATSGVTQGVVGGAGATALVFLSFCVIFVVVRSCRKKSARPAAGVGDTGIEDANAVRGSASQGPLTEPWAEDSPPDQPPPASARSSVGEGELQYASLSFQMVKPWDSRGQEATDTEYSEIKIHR

T1 sequence (chain, as listed by the source limits assumed): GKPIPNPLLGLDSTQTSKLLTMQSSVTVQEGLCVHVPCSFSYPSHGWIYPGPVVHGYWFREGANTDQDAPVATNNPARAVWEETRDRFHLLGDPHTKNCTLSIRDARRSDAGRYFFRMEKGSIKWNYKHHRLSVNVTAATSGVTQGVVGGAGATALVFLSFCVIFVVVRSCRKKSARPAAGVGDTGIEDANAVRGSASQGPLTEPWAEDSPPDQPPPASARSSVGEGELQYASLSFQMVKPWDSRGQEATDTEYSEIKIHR
T3 sequence (Q9Y336 other isoform, or with tags, fused parts or gaps mutant): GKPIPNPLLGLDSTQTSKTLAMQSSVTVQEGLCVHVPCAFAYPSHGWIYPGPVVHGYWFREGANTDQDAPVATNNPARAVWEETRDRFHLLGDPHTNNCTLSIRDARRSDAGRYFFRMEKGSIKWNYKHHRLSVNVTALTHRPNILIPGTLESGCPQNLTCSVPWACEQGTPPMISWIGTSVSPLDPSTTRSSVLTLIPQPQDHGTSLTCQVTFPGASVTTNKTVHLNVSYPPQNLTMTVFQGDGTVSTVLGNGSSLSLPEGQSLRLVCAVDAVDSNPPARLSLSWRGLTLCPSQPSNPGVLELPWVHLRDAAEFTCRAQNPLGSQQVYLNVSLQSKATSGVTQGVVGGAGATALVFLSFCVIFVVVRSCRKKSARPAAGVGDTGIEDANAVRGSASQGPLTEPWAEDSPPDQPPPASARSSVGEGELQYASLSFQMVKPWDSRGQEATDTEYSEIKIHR
T2 sequence (Q9Y336 other isoform, or with tags, fused parts or gaps mutant): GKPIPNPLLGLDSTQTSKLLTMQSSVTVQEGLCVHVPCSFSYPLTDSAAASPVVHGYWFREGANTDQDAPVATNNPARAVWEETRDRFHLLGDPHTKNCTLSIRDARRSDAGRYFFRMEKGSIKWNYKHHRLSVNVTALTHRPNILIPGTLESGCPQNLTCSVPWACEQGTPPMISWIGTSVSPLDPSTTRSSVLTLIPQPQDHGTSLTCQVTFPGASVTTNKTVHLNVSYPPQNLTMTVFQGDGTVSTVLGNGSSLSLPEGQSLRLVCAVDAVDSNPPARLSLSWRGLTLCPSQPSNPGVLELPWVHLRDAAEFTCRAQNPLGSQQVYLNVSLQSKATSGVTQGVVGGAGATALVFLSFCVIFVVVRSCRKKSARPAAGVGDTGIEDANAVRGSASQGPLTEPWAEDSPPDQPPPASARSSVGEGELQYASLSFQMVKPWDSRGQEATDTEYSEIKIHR
T7 sequence (Q9Y286 19-467): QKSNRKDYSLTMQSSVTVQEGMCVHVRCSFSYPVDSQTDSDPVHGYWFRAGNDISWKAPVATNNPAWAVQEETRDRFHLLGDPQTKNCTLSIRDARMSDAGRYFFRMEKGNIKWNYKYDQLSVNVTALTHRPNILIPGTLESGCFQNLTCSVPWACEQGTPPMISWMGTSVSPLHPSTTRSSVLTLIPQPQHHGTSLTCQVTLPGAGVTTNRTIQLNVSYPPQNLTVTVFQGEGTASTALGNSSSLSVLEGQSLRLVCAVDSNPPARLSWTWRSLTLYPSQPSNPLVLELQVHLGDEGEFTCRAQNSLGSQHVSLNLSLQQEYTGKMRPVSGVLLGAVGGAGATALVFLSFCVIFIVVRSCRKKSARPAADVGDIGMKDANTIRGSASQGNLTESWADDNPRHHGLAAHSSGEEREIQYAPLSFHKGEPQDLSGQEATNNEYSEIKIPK
T6 sequence (Q9Y336 18-463): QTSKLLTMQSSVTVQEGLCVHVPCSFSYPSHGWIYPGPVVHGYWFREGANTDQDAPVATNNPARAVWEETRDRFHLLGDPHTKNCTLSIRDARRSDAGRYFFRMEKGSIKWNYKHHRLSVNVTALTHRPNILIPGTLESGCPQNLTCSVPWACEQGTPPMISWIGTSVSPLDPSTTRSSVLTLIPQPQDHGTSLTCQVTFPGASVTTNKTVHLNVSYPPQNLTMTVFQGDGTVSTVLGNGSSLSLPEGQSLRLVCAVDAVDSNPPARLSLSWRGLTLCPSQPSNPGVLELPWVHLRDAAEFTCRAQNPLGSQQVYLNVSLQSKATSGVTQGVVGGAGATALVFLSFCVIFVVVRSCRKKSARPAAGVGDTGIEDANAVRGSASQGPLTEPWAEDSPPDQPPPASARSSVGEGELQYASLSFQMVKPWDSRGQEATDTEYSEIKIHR
T5 sequence (chain, as listed by the source limits assumed): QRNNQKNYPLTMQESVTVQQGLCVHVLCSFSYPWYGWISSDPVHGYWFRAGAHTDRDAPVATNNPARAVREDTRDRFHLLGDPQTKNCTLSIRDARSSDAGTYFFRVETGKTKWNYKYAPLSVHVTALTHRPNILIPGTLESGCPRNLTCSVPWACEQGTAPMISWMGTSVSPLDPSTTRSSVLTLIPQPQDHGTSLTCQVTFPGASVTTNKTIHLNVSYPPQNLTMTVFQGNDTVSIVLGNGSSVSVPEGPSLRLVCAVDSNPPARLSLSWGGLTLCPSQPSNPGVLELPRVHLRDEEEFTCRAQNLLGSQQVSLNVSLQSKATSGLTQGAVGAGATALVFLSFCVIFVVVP
T9 sequence (Q9Y336 other isoform, or with tags, fused parts or gaps mutant): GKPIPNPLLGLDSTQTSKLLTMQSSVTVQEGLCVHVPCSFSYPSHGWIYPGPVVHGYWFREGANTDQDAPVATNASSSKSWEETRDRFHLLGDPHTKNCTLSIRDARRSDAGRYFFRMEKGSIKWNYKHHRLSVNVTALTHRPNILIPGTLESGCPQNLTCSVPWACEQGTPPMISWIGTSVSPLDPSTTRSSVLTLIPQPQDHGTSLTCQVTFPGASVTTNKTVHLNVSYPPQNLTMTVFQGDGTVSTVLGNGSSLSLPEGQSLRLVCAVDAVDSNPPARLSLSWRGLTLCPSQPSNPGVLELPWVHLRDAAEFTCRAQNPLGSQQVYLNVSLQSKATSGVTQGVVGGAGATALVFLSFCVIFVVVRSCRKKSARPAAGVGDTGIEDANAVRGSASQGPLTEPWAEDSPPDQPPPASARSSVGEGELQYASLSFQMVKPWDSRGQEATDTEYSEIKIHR
T4 sequence (chain, as listed by the source limits assumed): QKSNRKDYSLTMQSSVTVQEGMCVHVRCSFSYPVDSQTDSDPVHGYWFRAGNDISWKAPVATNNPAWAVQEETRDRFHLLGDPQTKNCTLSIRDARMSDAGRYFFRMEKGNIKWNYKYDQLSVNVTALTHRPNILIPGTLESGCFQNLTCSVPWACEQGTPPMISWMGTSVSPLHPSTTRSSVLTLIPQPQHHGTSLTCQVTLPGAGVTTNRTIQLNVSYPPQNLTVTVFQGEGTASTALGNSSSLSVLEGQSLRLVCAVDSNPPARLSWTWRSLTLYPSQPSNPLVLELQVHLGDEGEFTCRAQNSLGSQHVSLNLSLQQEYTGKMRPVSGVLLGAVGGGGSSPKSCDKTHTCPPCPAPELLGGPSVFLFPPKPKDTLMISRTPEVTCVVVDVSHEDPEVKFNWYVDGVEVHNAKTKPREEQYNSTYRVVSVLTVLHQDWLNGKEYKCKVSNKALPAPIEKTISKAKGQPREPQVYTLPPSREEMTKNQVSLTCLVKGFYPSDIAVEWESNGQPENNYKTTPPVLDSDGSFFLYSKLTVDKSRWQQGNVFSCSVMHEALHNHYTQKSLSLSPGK
T8 sequence (chain, as listed by the source limits assumed): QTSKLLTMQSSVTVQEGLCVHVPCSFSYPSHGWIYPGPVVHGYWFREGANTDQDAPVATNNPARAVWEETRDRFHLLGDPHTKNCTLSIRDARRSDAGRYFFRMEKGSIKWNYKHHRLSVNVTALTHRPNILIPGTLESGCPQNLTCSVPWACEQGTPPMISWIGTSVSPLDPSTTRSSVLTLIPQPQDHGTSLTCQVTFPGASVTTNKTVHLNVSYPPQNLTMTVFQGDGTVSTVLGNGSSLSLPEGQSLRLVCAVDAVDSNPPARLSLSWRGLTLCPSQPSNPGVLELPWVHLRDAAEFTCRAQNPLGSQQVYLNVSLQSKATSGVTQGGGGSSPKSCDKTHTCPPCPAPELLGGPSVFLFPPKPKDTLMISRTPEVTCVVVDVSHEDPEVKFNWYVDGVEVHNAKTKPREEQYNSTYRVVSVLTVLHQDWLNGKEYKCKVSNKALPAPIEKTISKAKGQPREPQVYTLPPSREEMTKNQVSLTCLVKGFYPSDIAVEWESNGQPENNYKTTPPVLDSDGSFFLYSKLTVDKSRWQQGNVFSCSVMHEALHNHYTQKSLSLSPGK
T10 sequence (Q9Y336 other isoform, or with tags, fused parts or gaps mutant): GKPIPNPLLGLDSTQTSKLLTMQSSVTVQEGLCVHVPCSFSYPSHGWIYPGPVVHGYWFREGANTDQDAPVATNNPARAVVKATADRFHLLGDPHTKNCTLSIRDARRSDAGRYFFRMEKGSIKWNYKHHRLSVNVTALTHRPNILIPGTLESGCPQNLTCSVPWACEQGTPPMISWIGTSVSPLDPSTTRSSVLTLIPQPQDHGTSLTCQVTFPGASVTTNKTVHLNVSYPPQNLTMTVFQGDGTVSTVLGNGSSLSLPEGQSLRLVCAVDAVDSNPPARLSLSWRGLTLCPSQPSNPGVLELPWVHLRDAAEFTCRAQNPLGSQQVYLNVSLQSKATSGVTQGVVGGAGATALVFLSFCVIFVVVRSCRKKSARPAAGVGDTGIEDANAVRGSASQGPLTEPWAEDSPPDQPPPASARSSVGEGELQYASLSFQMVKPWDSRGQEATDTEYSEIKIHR

B1: mAb1 (antibody, human IgG1, V domains shown)
VH: DVQLQESGPGLVKPSQSLSLTCTVTGYSITGGFAWNWIRQFPGNTLEWMGYIGYGGSTSYNPSLNSRISITRDTSKNHFFLQFNSVTTDDSATYYCARGDYLFAYWGQGTLVTVSA
VL: DIVMTQSHKFMSTSVGDRVSITCKASQDVNTAVAWYQQKPGQSPKLLIYSASYRYTGVPDRFTGSGSGTDFTFTISSVQAEDLAVYYCQQHYSTPRTFGGGTKLEIK
binding result [1]: binds | binding result [2]: binds | binding result [3]: binds | IC50 (read off the curve) [4]: ~3 µg/mL | EC50 [5]: 0.67 µg/mL | EC50 [6]: 0.11 µg/mL | EC50 [7]: 0.21 µg/mL

B2: mAb3 (antibody, human IgG1, V domains shown)
VH: B1 VH with D1E, Q5L, S7T, D89E
VL: DILMTQSPASLSASVGETVSITCRASGNIHNYLAWYLQRQGKSPQLLVYNAKTLADGVPSRFSGTGSGTQFSLKINSLQPEDFGSYYCQHFWSTPRTFGGGTKLEIK
binding result [1]: binds | binding result [2]: binds | binding result [3]: binds | binding result [8]: binds | EC50 [5]: 0.85 µg/mL | EC50 [6]: 0.23 µg/mL | EC50 [7]: 0.22 µg/mL

B3: mAb2 (antibody, human IgG1, V domains shown)
VH: B1 VH with D1E, D89E
VL: B1 VL
binding result [1]: binds | binding result [2]: binds | binding result [3]: binds | EC50 [5]: 0.53 µg/mL | EC50 [6]: 0.08 µg/mL | EC50 [7]: 0.17 µg/mL

B4: mAbE (antibody, human IgG1, V domains shown)
VH: DVQLVESGGGLVQPGGSRKLSCAASGFTFSTFGMHWVRQAPEKGLEWVAYISSGSNAIYYADTVKGRFTISRDNPKNTLFLQMTSLRSEDTAMYYCASPGYGAWFAYWGQGTLVTVSA
VL: ENVLTQSPAIMSASPGEKVTMTCRASSSVSSAYLHWYQQKSGASPKLWIYSTSNLASGVPARFSGSGSGTSYSLTISSVEAEDAATYYCQQYSAYPYTFGGGTKLEIK
binding result [1]: binds | binding result [2]: binds | binding result [3]: binds | EC50 [9]: 0.01 µg/mL | binding result [10]: no binding

Continued, values first:

binding result [1]: binds | binding result [2]: binds | binding result [11]: binds | binding result [12]: binds | binding result [13]: binds | binding result [3]: binds | EC50 [9]: 0.1 µg/mL | binding result [10]: no binding
B5: mAbB (antibody, human IgG1, V domains shown)
VH: QVQLQQPGAELVKPGASVKLSCKASVYTFTSYWMHWVKQRPGQGLEWIGEINPSNGHTNYNEKFKTKAKLTVDKSSSTAYMQLSSLTSEDSAVYFCANGVETYDFDDAMDYWGQGTSVTVSS
VL: DIQMTQTTSSLSASLGDRVTISCRASQDINNYLNWYQQKPDGTVKLLIYFTSRLHSGVPSRFSGSGSGTDYSLTISNLEQEDIATYFCQQGDTFPFTFGGGTKLEIK

binding result [1]: binds | binding result [2]: binds | binding result [3]: binds | EC50 [9]: 0.3 µg/mL | binding result [10]: no binding
B6: mAbF (antibody, human IgG1, V domains shown)
VH: QVQLQQSGPEVVRPGVSVKISCKGSGYTFTDYSMHWVKQSHAKSLEWIGVISTYNGNTNYNQKFKGKATMTVDKSSSTAYMELARLTSEDSAIYYCARRGYYGSSSWFGYWGQGTLVTVSA
VL: DIVMTQSQKFMSTSVGDRVSVTCKASQNVGTDVAWYQQKPGQSPEALIYSASYRYSGVPDRFTGSGSGADFTLTISNVQSEDLAEYFCQQYNSFPYTFGGGTKLEIK
